# From publication PMC4837482, “The complex binding mode of the peptide hormone H2 relaxin to its receptor RXFP1” (Nature Communications, 2016)
# Numbering of substitutions follows the chain as printed.
# How the values were obtained:
# Assay in all cases: cAMP activity assay (pCRE β-galactosidase reporter), transfected HEK293T cells
# Format in all cases: cell-based
# RXFP1 E67A = target: T1, RXFP1 E67A (Homo sapiens, UniProt Q9HBX9, E89A); settings: construct E67A, ±s.e.m.
# T1 construct: cells expressing full-length RXFP1 and mutants; expressed in transfected cells; host or cells: HEK293T
# T1 sequence (Q9HBX9 23-757 E89A limits assumed): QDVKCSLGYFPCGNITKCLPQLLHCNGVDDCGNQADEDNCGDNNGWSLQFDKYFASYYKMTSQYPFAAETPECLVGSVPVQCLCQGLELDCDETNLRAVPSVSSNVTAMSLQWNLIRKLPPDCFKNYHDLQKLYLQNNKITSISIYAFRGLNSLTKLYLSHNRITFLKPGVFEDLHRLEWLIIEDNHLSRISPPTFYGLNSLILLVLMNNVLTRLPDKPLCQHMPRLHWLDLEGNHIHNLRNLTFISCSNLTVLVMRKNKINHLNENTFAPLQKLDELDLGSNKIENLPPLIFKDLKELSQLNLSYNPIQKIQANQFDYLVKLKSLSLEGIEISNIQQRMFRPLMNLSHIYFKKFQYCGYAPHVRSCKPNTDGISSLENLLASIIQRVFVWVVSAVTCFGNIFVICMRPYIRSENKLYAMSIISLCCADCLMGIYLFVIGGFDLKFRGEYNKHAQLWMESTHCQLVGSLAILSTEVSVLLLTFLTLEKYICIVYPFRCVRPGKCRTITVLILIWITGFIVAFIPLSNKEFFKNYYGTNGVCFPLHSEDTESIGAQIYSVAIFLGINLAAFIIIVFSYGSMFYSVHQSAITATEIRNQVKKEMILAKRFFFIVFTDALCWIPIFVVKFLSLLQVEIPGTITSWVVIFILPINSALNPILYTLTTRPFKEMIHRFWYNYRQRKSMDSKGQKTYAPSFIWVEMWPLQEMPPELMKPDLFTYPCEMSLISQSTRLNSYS
# Method in brief: (§1)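 Stim: H2 relaxin in minimal media/1% DMSO; +ctrl 5 μM Forskolin, −ctrl vehicle. Plates frozen −80 °C o/n, lysed 10 min + 10 min in Na2HPO4 pH 8.0 buffers, CPRG substrate, A570. Data = % Forskolin max.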
# RXFP1 E67A^ins = target: T2, RXFP1 E67A^ins (Homo sapiens, UniProt Q9HBX9, INS89A); settings: construct E67A^ins, ±s.e.m.
# T2 construct: transiently transfected human embryonic kidney (HEK) 293T cells expressing full-length RXFP1 and mutants; expressed in transfected cells; host or cells: HEK293T
# T2 sequence (Q9HBX9 with tags, fused parts or gaps INS89A limits assumed): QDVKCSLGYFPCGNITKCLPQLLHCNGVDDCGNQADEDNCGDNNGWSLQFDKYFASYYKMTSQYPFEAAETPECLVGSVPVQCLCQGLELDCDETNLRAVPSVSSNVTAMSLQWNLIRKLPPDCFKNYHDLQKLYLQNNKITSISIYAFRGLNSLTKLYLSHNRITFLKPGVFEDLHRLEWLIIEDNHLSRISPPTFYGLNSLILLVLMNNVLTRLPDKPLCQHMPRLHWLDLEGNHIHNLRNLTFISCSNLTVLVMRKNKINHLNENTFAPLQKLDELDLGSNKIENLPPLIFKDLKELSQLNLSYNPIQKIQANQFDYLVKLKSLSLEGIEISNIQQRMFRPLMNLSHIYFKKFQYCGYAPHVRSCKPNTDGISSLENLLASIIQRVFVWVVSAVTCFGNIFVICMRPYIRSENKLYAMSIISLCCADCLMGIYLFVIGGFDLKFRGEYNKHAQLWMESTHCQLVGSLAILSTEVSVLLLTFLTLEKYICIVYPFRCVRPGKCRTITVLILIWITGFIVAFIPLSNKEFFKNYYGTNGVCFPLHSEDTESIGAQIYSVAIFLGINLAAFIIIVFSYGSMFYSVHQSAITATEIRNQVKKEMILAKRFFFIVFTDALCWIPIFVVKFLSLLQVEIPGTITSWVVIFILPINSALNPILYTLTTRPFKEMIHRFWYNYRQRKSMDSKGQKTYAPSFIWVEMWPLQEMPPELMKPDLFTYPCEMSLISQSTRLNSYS
# Method in brief: as §1
# RXFP1 G45A = target: T3, RXFP1 G45A (Homo sapiens, UniProt Q9HBX9, G67A); settings: construct G45A, ±s.e.m.
# T3 construct: transiently transfected human embryonic kidney (HEK) 293T cells expressing full-length RXFP1 and mutants; expressed in transfected cells; host or cells: HEK293T
# T3 sequence (Q9HBX9 23-757 G67A limits assumed): T1 sequence (Q9HBX9 23-757 E89A limits assumed) with G45A, A67E
# Method in brief: as §1
# [1] = percentage of maximum response to 5 μM Forskolin
substance,measurement,setting,value
H2 relaxin: two-chain 6-kDa peptide hormone structurally related to insulin; recombinant human gene-2 H2 relaxin provided by Corthera,H2 relaxin pEC50,RXFP1 E67A; cAMP reporter,11.13±0.13
same,H2 relaxin Emax,RXFP1 E67A; [1],141.74±27.08 (5) %
same,H2 relaxin pEC50,RXFP1 E67A^ins; cAMP reporter,11.32±0.04 (3)
same,H2 relaxin Emax,RXFP1 E67A^ins; [1],110.15±6.43(3) %
same,H2 relaxin pEC50,RXFP1 G45A; cAMP reporter,7.48±0.57 (4)
same,H2 relaxin Emax,RXFP1 G45A; [1],135.94±31.68 (4) %
